Source: PMC9482650, “Quantitative fragmentomics allow affinity mapping of interactomes” (Nature Communications, 2022)

Assays:
Assay in all cases: holdup assay
Set-up in all cases: key: below the threshold = too weak to quantify, mostly under pKd 3.1 to 4
[1] = biological target: T1, SNTA1, Q13424
T1 sequence (Q13424 82-180, limits assumed, looked up): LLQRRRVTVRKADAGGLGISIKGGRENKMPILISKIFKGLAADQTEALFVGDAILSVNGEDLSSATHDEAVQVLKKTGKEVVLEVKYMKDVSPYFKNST

[2] = biological target: T2, DLG3_1, Q92796
T2 sequence (Q92796 125-227, limits assumed, looked up): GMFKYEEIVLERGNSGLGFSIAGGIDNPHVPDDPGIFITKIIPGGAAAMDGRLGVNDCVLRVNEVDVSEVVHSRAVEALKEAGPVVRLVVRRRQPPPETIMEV

[3] = biological target: SCRIB_1, Q14160
[4] = biological target: GRASP, Q7Z6J2
[5] = biological target: IL16_4, Q14005
[6] = biological target: T3, TJP3_3, O95049
T3 sequence (O95049 375-456, limits assumed, looked up): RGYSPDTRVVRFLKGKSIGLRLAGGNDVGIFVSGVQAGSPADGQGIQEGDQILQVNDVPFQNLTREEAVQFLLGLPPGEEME

[7] = biological target: DLG5_1, Q8TDM6
[8] = biological target: T4, SHANK1, Q9Y566
T4 sequence (Q9Y566 658-767, limits assumed, looked up): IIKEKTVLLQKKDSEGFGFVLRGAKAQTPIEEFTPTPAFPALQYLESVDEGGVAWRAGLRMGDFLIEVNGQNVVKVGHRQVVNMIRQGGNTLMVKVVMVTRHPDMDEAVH

[9] = biological target: T5, SNTG1, Q9NSN8
T5 sequence (Q9NSN8 52-150, limits assumed, looked up): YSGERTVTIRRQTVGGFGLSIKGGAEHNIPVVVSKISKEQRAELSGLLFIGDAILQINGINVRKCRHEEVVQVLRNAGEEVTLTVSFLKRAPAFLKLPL

[10] = biological target: T6, APBA2_1, Q99767
T6 sequence (Q99767 563-664, limits assumed, looked up): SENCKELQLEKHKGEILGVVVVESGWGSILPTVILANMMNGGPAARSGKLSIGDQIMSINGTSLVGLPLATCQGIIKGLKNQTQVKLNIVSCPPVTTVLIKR

[11] = biological target: GRID2IP_1, A4D2P6
[12] = biological target: MAST2, Q6P0Q8
[13] = biological target: T7, RHPN1, Q8TCX5
T7 sequence (Q8TCX5 508-602, limits assumed, looked up): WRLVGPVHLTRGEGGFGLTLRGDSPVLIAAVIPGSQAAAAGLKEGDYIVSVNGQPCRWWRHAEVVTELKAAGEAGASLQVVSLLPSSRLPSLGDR

[14] = biological target: FRMPD3, Q5JV73
[15] = biological target: ARHGEF12, Q9NZN5-2
[16] = biological target: T8, DLG3_2, Q92796
T8 sequence (Q92796 221-321, limits assumed, looked up): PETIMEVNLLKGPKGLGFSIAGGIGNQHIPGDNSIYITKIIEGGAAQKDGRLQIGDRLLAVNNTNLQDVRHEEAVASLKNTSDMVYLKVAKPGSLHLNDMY

[17] = biological target: LIMK2, P53671
[18] = biological target: GOPC, Q9HD26
[19] = biological target: PDZRN4_1, Q6ZMN7
[20] = biological target: T9, SYNJ2BP, P57105
T9 sequence (P57105 8-110, limits assumed, looked up): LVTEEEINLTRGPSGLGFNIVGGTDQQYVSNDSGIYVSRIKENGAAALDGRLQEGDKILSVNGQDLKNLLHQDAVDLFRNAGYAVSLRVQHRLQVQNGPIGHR

[21] = biological target: CASK, O14936
[22] = biological target: NHERF4_1, Q86UT5-2
[23] = biological target: T10, MPDZ_10, O75970
T10 sequence (O75970 1624-1722, limits assumed, looked up): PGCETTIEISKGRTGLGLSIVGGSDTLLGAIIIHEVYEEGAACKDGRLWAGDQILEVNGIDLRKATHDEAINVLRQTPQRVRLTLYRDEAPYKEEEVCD

[24] = biological target: T11, TX1BP3, O14907
T11 sequence (O14907 10-122, limits assumed, looked up): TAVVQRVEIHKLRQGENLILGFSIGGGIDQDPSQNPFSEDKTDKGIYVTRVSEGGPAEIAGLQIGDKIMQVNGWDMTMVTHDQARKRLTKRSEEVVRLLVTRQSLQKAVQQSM

[25] = biological target: MAGI1_2, Q96QZ7
[26] = biological target: T12, NHERF3_1, Q5T2W1
T12 sequence (Q5T2W1 4-100, limits assumed, looked up): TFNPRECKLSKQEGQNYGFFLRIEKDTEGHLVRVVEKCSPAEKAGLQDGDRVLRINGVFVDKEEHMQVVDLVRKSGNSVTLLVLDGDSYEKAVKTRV

[27] = plain residues with an end cap or a label only (N-terminal biotin on a linker: ado-ado)
[28] = modified: acetyl on K at position -1 from the C-terminal residue

Chain of PDZRN4_1, Q6ZMN7 (Q6ZMN7 213-318): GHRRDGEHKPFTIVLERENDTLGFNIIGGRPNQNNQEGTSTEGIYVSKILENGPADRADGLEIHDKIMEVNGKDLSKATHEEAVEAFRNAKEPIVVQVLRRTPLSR
Chain of GRID2IP_1, A4D2P6 (A4D2P6 1-87): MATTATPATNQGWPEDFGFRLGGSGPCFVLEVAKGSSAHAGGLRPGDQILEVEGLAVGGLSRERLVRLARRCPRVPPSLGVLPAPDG
Chain of FRMPD3, Q5JV73 (Q5JV73 12-100): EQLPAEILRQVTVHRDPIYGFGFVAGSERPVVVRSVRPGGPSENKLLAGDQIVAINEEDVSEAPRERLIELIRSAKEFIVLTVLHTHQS
Chain of SCRIB_1, Q14160 (Q14160 718-814): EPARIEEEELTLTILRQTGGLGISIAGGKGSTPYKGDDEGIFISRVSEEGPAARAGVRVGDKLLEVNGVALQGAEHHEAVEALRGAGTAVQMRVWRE
Chain of MAST2, Q6P0Q8 (Q6P0Q8 1099-1202): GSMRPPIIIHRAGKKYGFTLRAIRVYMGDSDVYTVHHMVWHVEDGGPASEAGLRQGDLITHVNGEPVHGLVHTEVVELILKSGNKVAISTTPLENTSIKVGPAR
Chain of MAGI1_2, Q96QZ7 (Q96QZ7 456-580): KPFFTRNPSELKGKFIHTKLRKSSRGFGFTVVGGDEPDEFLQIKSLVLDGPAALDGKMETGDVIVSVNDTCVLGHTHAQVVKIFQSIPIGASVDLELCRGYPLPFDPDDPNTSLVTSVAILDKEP
Chain of LIMK2, P53671 (P53671 143-248): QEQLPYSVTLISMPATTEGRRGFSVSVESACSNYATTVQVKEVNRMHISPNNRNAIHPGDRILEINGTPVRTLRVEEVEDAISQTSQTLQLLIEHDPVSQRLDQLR
Chain of CASK, O14936 (O14936 487-570): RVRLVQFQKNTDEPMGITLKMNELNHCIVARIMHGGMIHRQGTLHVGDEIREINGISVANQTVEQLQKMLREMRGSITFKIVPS
Chain of ARHGEF12, Q9NZN5-2 (Q9NZN5 other isoform, or with tags, fused parts or gaps): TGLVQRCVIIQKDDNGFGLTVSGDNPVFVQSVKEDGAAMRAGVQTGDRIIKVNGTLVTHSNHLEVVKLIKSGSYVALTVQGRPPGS
Chain of DLG5_1, Q8TDM6 (Q8TDM6 617-713): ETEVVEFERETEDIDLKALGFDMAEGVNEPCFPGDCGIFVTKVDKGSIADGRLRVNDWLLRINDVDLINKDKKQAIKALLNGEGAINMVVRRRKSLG
Chain of IL16_4, Q14005 (Q14005 1229-1329): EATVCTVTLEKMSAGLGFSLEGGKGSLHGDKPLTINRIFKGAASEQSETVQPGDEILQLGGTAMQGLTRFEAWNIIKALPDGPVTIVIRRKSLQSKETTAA
Chain of GRASP, Q7Z6J2 (Q7Z6J2 96-193): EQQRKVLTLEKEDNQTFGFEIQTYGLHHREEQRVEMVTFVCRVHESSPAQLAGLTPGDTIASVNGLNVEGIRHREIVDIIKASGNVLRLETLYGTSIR
Chain of NHERF4_1, Q86UT5-2 (Q86UT5 other isoform, or with tags, fused parts or gaps): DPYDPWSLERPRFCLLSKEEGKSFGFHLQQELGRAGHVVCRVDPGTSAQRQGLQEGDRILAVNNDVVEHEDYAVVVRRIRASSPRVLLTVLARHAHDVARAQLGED

TMQMSLKDLL [GLA, P06280] was tested, and the pKd [1, 27] was “below the threshold”, the pKd [2, 27] was 3.56 and the pKd [3, 27] was “below the threshold”. The pKd [4, 27] was 4.6, the pKd [5, 27] was 3.69 and the pKd [6, 27] was “below the threshold”. The pKd [7, 27] was “below the threshold”, the pKd [8, 27] was 3.59 and the pKd [9, 27] was 3.5. For the same binder, the pKd [10, 27] was “below the threshold”, the pKd [11, 27] was “below the threshold” and the pKd [12, 27] was 4.19. For the same binder, the pKd [13, 27] was 3.79, the pKd [14, 27] was “below the threshold” and the pKd [15, 27] was “below the threshold”. The pKd [16, 27] was “below the threshold”, the pKd [17, 27] was “below the threshold” and the pKd [18, 27] was 3.49. The pKd [19, 27] was “below the threshold”, the pKd [20, 27] was “below the threshold” and the pKd [21, 27] was “below the threshold”. The pKd [22, 27] was 3.99, the pKd [23, 27] was “below the threshold” and the pKd [24, 27] was “below the threshold”. The pKd [25, 27] was “below the threshold” and the pKd [26, 27] was 4.34.

DEDQHTQITKV [PTEN_Ac, P60484] was tested, and the pKd [1, 28] was 4.71, the pKd [2, 28] was “below the threshold” and the pKd [3, 28] was 5.23. For the same binder, the pKd [4, 28] was 5.32, the pKd [5, 28] was “below the threshold” and the pKd [6, 28] was “below the threshold”. The pKd [7, 28] was “below the threshold”, the pKd [8, 28] was 4.18 and the pKd [9, 28] was 4.45. For the same binder, the pKd [10, 28] was “below the threshold”, the pKd [11, 28] was “below the threshold” and the pKd [12, 28] was 5.14. For the same binder, the pKd [13, 28] was 4.65, the pKd [14, 28] was “below the threshold” and the pKd [15, 28] was 4.47. The pKd [16, 28] was 4.56, the pKd [17, 28] was “below the threshold” and the pKd [18, 28] was 4.19. The pKd [19, 28] was “below the threshold”, the pKd [20, 28] was 3.61 and the pKd [21, 28] was “below the threshold”. For the same binder, the pKd [22, 28] was “below the threshold”, the pKd [23, 28] was 4.18 and the pKd [24, 28] was 3.74. It also gave a pKd [25, 28] of 3.69 and a pKd [26, 28] of 4.16.

FEEEAEEEVA [TUBB4B, P68371] was tested, and the pKd [1, 27] was “below the threshold”, the pKd [2, 27] was “below the threshold” and the pKd [3, 27] was “below the threshold”. The pKd [4, 27] was “below the threshold”, the pKd [5, 27] was “below the threshold” and the pKd [6, 27] was “below the threshold”. The pKd [7, 27] was “below the threshold”, the pKd [8, 27] was “below the threshold” and the pKd [9, 27] was “below the threshold”. For the same binder, the pKd [10, 27] was “below the threshold”, the pKd [11, 27] was “below the threshold” and the pKd [12, 27] was “below the threshold”. The pKd [13, 27] was “below the threshold”, the pKd [14, 27] was “below the threshold” and the pKd [15, 27] was “below the threshold”. For the same binder, the pKd [16, 27] was 4.01, the pKd [17, 27] was “below the threshold” and the pKd [18, 27] was “below the threshold”. The pKd [19, 27] was “below the threshold”, the pKd [20, 27] was “below the threshold” and the pKd [21, 27] was “below the threshold”. For the same binder, the pKd [22, 27] was “below the threshold”, the pKd [23, 27] was “below the threshold” and the pKd [24, 27] was 3.8. For the same binder, the pKd [25, 27] was “below the threshold” and the pKd [26, 27] was “below the threshold”.
